The results in this text go back to ChEMBL document CHEMBL1143079, “Designing better coumarin-based fluorogenic substrates for PTP1B” (Bioorg Med Chem Lett, 2008).

Substrate in data set [1]: COC(=O)Cc1cc(=O)oc2cc(OP(=O)(O)O)ccc12
Substrate in data set [2]: O=C(O)CCNC(=O)Cc1cc(=O)oc2cc(OP(=O)(O)O)ccc12
Substrate in data set [3]: O=C(Cc1cc(=O)oc2cc(OP(=O)(O)O)ccc12)OCc1ccccc1
Substrate in data set [4]: O=C(Cc1cc(=O)oc2cc(OP(=O)(O)O)ccc12)NCCc1ccc(O)cc1
Substrate in data set [5]: NC(=O)Cc1cc(=O)oc2cc(OP(=O)(O)O)ccc12
Substrate in data set [6]: O=C(Cc1cc(=O)oc2cc(OP(=O)(O)O)ccc12)NCCc1ccc(OP(=O)(O)O)cc1
Substrate in data set [7]: O=C(Cc1cc(=O)oc2cc(OP(=O)(O)O)ccc12)NCc1ccc(OP(=O)(O)O)cc1
Substrate in data set [8]: COC(=O)[C@H](Cc1ccc(OP(=O)(O)O)cc1)NC(=O)Cc1cc(=O)oc2cc(OP(=O)(O)O)ccc12
Substrate in data set [9]: NC(=O)[C@H](Cc1ccc(OP(=O)(O)O)cc1)NC(=O)Cc1cc(=O)oc2cc(OP(=O)(O)O)ccc12

For orientation: Km means the concentration of substrate that gives half-maximal velocity. As usually defined, the kcat is the number of substrate molecules converted per active site and unit of time at saturation.

B1: Tyrosine-protein phosphatase non-receptor type 1 (Homo sapiens), P18031 (protein)
chain: MEMEKEFEQIDKSGSWAAIYQDIRHEASDFPCRVAKLPKNKNRNRYRDVSPFDHSRIKLHQEDNDYINASLIKMEEAQRSYILTQGPLPNTCGHFWEMVWEQKSRGVVMLNRVMEKGSLKCAQYWPQKEEKEMIFEDTNLKLTLISEDIKSYYTVRQLELENLTTQETREILHFHYTTWPDFGVPESPASFLNFLFKVRESGSLSPEHGPVVVHCSAGIGRSGTFCLADTCLLLMDKRKDPSSVDIKKVLLEMRKFRMGLIQTADQLRFSYLAVIEGAKFIMGDSSVQDQWKELSHEDLEPPPEHIPPPPRPPKRILEPHNGKCREFFPNHQWVKEETQEDKDCPIKEEKGSPLNAAPYGIESMSQDTEVRSRVVGGSLRGAQAASPAKGEPSLPEKDEDHALSYWKPFLVNMCVATVLTAGAYLCYRFLFNSNT
For B1, the Km in data set [1] was determined as 147 µM; in data set [2] it was 111 µM; in data set [3] it was 36 µM; in data set [5], 224 µM; in [6], 38 µM; in data set [7], 25 µM. For the same protein, the values for the Km in data set [8] and in data set [9] were 82 µM and 149 µM, respectively. Further, the kcat in data set [1] was determined as 8.2 s⁻¹; in [2], 5.8 s⁻¹; in data set [3] it was 10.5 s⁻¹; in data set [4], 4.8 s⁻¹; in data set [5] it was 5 s⁻¹; in data set [6], 7.1 s⁻¹. Moreover, the values for the kcat in [7], in data set [8] and in [9] were 5.2 s⁻¹, 3.4 s⁻¹ and 3.2 s⁻¹, respectively.
